# Article doi:10.1101/2025.01.28.635353 (2025)
# B1: aEGFR-R1-1 (antibody, V domains shown)
# VH: EVKLQQSGDETMRPGASVRMSCKAYGYTFTDYSMHWIRQRPGQGLEWIGIIIPLIDTTRYNQKFKGKATLTADTSSDTAYMELSRLTFEDSAVYYCARSYDPSGDDWFAYWGQGTLVTVSS
# VL: DTVLTQSPALSVSPGERVDISCRASESVSTLLHWYQQKPGQQPTLLISLASSLESGVPARFSGSGSGTDFTLTIDPVEADDTAIYYCQESWNEPYAFGAGTKLELK
# Target: EGFR (UniProt P00533 25-1210)
# Experiment: SPR; printed as pKD […]
binder,measurement,value
B1,Kd,0.126 nM
